According to article PMC6162344:

Columns and labels:
CENP-OPQU (human) = CENP-OPQU (human) (UniProt Q9BU64); experiment: AUC
[1] = target: Taxol-stabilised microtubules (TIRF) (pig) (UniProt P02550); experiment: TIRF microscopy of single particles on microtubules

CENP-OPQU, sequence (Q9BU64 whole entry): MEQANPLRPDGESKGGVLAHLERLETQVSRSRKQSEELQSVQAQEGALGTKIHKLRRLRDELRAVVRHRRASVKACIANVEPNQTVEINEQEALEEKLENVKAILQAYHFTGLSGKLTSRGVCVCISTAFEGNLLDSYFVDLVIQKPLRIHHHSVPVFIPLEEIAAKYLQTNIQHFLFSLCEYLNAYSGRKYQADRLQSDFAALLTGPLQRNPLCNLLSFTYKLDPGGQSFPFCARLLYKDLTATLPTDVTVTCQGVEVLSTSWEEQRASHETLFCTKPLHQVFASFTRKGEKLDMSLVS
CENP-OPQU, sequence (Q6IPU0 whole entry): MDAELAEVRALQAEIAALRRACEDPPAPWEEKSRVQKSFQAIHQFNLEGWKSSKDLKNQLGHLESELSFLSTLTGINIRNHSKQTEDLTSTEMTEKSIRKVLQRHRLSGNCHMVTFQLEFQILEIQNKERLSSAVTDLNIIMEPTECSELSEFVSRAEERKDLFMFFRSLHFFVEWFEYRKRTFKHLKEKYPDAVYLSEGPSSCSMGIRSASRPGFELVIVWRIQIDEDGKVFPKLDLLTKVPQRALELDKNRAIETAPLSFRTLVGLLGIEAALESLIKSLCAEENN
CENP-OPQU, sequence (Q7L2Z9 whole entry): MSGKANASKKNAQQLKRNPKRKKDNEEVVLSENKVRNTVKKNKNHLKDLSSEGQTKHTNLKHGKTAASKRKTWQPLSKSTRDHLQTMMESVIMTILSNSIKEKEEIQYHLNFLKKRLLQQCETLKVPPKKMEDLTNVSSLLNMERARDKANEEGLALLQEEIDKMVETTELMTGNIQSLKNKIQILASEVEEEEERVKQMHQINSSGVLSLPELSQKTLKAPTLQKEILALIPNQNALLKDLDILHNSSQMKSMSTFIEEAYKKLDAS
CENP-OPQU, sequence (Q71F23 whole entry): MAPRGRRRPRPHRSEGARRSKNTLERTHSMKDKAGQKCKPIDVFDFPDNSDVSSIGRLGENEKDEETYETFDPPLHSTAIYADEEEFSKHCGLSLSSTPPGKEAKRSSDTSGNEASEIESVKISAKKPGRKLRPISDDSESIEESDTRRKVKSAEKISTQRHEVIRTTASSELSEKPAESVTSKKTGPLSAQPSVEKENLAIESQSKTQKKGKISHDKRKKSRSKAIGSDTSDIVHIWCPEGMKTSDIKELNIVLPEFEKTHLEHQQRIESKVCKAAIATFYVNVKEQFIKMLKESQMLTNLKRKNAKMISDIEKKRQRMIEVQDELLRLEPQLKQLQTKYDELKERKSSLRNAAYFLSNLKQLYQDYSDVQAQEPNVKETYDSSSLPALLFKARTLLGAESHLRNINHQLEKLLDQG
CENP-OPQU (human), sequence (Q9BU64 whole entry, chain 1 of 4): as the sequence (Q9BU64 whole entry) above
CENP-OPQU (human), sequence (Q6IPU0 whole entry, chain 2 of 4, further chain): as the sequence (Q6IPU0 whole entry) above
CENP-OPQU (human), sequence (Q7L2Z9 whole entry, chain 3 of 4, further chain): as the sequence (Q7L2Z9 whole entry) above
CENP-OPQU (human), sequence (Q71F23 whole entry, chain 4 of 4, further chain): as the sequence (Q71F23 whole entry) above

| stoichiometry N (CENP-OPQU (human)) | mean time associated [1] [s] | Substance |
| --- | --- | --- |
| 1 |  | CENP-R (co-expressed or co-lysed with CENP-OPQU subunits) (from UniProt Q13352 1-177) (natural protein) |
|  | 131 | CENP-OPQU (from UniProt Q9BU64 1-300; Q6IPU0 1-288; Q7L2Z9 1-268; Q71F23 1-418) (complex) |
